Measurements taken from article PMC8664833.

Molecular target: ZAP-S (short isoform of zinc-finger antiviral protein) (human, UniProt Q7Z2W4-2 1-699)
Experiment: MST; 5 mM Mg2+
Settings: protein: recombinant, tags: N-terminal 6xHis-SUMO, label: 3' pCp-Cy5

ZAP-S (short isoform of zinc-finger antiviral protein), sequence (Q7Z2W4 other isoform, or with tags, fused parts or gaps): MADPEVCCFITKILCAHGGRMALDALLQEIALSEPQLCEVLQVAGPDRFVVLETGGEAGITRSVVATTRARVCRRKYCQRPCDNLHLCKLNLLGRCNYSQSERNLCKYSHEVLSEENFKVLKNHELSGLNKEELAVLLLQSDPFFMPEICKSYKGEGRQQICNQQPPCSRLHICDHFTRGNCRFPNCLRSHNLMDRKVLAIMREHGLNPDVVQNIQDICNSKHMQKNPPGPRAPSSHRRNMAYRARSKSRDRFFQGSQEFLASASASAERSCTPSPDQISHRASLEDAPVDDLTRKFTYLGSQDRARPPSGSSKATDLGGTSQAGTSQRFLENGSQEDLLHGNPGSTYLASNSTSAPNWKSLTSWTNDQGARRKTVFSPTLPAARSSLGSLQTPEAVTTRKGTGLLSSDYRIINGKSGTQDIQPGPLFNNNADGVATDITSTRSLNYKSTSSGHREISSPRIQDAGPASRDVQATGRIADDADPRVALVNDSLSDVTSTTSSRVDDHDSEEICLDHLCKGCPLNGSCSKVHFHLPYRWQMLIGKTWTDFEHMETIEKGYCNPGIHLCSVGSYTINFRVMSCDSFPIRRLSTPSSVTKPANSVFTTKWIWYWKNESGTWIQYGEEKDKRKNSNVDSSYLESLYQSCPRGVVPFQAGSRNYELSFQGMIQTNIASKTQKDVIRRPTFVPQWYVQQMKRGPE

B1: dSL2 mutant (structured_RNA)
RNA: UCGUUUUUAAACGGGUUUGCGGUGUAAGUGCAGCCCGUCUUACACCGUGCGGCACAGGCACUAGUACUGAUGUCGU
Binder B1 has a Kd (two consecutive stem-loops) of 672 ± 164 nM.

B2: dSL3 mutant (structured_RNA)
RNA: UCGUUUUUAAACGGGUUUGCGGUGUAAGUGCAGCCCGUCUUACACCGUAUACAGGGCU
B2 was tested, and the Kd (shorter pseudoknot (predicted)) was 175 ± 64 nM.

B3: Compensatory mutant (structured_RNA)
RNA: UCGUUUUUAAACGGGUUUGGGGUGUAAGUGCAGCCCGUCUUACACCCUGGGGCACAGGCACUAGUACUGAUGUCCUAUACAGGGCU
With B3 the Kd (pseudoknot (predicted)) was 128 ± 29 nM.

UCGUUUUUAAACGGGUUUGCGGUGUAAGUGCAGCCCGUCUUACACCGU (structured_RNA) [dSL2+3 mutant (SL1 only)]: no binding (hairpin).
